Experimental data as given in patent US20240117066A1 (Memorial Sloan Kettering, published 2024).

B1: 11E10 antibody (antibody, V domains shown)
VH: QVQLQQSGPELVKPGASVKMSCKTSGYTFTDYVITWVKQRTGQGLEWIGEIYPRSGNTYYNAKFRGKATLTADKSSNTAYMQLSSLTSEDSAVYFCARGGYYDFDFFAMDYWGQGTSVTVSS
VL: DIVMTQAAPSVPVTPGESVSISCRSSKSLLHSNGNTYLYWFLQRPGQSPQLLIYRMSNLASGVPDRFSGSGSGTAFTLRISRVEAEDVGVYYCMQHLEYPYTFGGGTKLEIK
B2: 8B1 antibody (antibody, V domains shown)
VH: QIQLVQSGPELKKPGETVKISCKASGYTFTNYGMNWVKQAPGKGLKWMGWINTNTGEPTYAEEFKGRFAFSLETSASTAYLQINNLKNEDTATYFCGDYEFAYWGQGTLVTVSA
VL: DIQMTQSPASLSVSVGETVTITCRASENIYSNLAWYQQKQGKSPQLLVYAATNLADGVPSRFSGSGSGTQYSLKINSLQSEDFGSYYCQHFWGTPWTFGGGTKLEIK
B3: 17C9 antibody (antibody, V domains shown)
VH: EVQLVESGGGLVKPGGSLKLSCAASGFTFSSYAMSWVRQSPEKRLEWVAEISSGGTYTYYPDTVTGRFTISRDNAKNTLYLEMSSLRSEDTAMYYCARDDGFYAWFGYWGQGTLVTVSA
VL: not shown
B4: 6C8 antibody (antibody, V domains shown)
VH: EVQLVESGGGLVQPGGSLKISCAASGFTFTNYGMSWVRQTPDKRLELVATTNSNGGATYYPDSVKGRFTISRDNAKNTLYLQMSSLKSEDTAMYFCTRDRDYYGGSMDYWGQGTSVTVSS
VL: DIVMSQSPSSLAVSVGERVSMSCKSSQSLLYSSDQKNYLAWYQQKPGQSPELLIYWASTRESGVPDRFTGSGSGTDFTLTISSVKAEDLAIYYCQQYYSYPFTFGSGTKLEIK
B5: 14C5 antibody (antibody, V domains shown)
VH: QVQLKESGPGLVAPSQSLSITCTVSGFSLTSYGVHWVRQPPGKGLEWLGVLWAGGSTDYNSALMSRLSISKDNSKSQVFLKMNSLQTDDTAMYYCARGGLRQVFAYWGQGTLVTVSA
VL: DVLMTQTPLSLPVSLGDQASISCRSSQSIVYSNGNTYLEWYLQKPGQSPKLLIYKVSNRFSGVPDRFSGSGSGTDFTLKISRVEAEDLGVYYCFQGSHVPYTFGGGTKLEMK

Target: T1, recombinant human uPAR protein (Leu23-Arg303) with a C-terminal 6-his tag (human, UniProt Q03405 23-303)
T1 construct: also called CD87
T1 sequence (Q03405 other isoform, or with tags, fused parts or gaps): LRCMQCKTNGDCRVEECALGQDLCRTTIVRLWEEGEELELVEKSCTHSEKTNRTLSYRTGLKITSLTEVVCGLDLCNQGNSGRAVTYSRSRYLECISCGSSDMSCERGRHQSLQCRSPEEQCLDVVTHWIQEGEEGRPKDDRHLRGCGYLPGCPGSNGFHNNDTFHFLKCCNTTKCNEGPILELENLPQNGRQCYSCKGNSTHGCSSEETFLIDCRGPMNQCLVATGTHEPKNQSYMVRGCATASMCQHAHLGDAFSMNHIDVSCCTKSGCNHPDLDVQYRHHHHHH
Assay: Biacore (SPR), single cycle kinetics
Protocol: Six clones 8B1, 11E10, 17C9, 19D7, 6C8, and 14C5 were produced. Next, the binding affinities KD of 8B1, 11E10, 17C9, 19D7, 6C8, and 14C5 antibodies were assessed. The KD values were calculated using the Biacore single cycle kinetics analysis.

| Binder | Kd [nM] |
| --- | --- |
| B1 | 95.2 |
| B2 | 3.48 |
| B3 | 18.6 |
| B4 | 6.61 |
| B5 | 42.4 |
